Experimental data: the supplement of paper PMC7877785
± gives the uncertainty stated by the source.

Experiment: self-splicing fitness, log relative to wild type (ln ratio); higher = more splicing; Tetrahymena group I intron in knt gene, E. coli kanamycin selection, DiMSum; sequences stand for … in CUCUCU…GGAGGGAAAAGUUAUCAGGCAUGCACCUGGUAGCUAGUCUUUAAACCAAUAGAUUGCAUCGGUUUAAAAGGCAAGACCGUCAAAUUGCGGGAAAGGGGUCAACAGCCGUUCAGUACCAAGUCUCAGGGGAAACUUUGAGAUGGCCUUGCAAAGGGUAUGGUAAUAAGCUGACGGACAUGGUCCUAACCACGCAGCCAAGUCCUAAGUCAACAGAUCUUCUGUUGAUAUGGAUGCAGUUCACAGACUAAAUGUCGGUCGGGGAAGAUGUAUUCUUCUCAUAAGAUAUAGUCGGACCUCUCCUUAAUGGGAGCUAGCGGAUGAAGUGAUGCAACACUGGAGCCGCUGGGAACUAAUUUGUAUGCGAAAGUAUAUUGAUUAGUUUUGGAGUACUCGUGGUCG
Outline: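 DiMSum derived fitness as the error-weighted combination of fold changes across replicates, kanamycin versus no kanamycin, normalised to wild type. E. coli BL21(DE3) held the library, which randomised all eight P1ex-region intron nucleotides within the knt kanamycin-resistance gene on pET-22b(+). Six replicate transformations grew overnight at 37°C or 30°C on LB agar with or without 25 μg/mL kanamycin, also containing 100 μg/mL carbenicillin, 50 μM IPTG and 0.2% rhamnose, and pooled colonies were amplicon-sequenced on an Illumina HiSeq 2500.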

Row | Sequence | self-splicing fitness (ln) (30 °C) | self-splicing fitness (ln) (37 °C)
1 | UCUGAGCAAUAUUACGACCG | -2.92 ± 0.4 | -2.39 ± 0.46
2 | CACUAGCAAUAUUACGCUUG | -2.03 ± 0.16 | -0.991 ± 0.13
3 | GCGCAGCAAUAUUACGAAUG | -1.52 ± 0.13 | -0.961 ± 0.14
4 | UGGAAGCAAUAUUACGAUGG | -2.38 ± 0.14 | -0.0527 ± 0.12
5 | UAAGAGCAAUAUUACGCGCC |  | -1.6 ± 0.38
6 | GUACAGCAAUAUUACGACUG | -1.83 ± 0.13 | -1.33 ± 0.14
7 | UCAAAGCAAUAUUACGCACC |  | -0.644 ± 0.36
8 | CUCCAGCAAUAUUACGUUCA | -3.32 ± 0.29 | -2.85 ± 0.25
9 | CUGUAGCAAUAUUACGGGGA | -2.67 ± 0.17 | -2.9 ± 0.24
10 | UUAAAGCAAUAUUACGAACU | -0.567 ± 0.11 | -0.0402 ± 0.12
11 | CGAGAGCAAUAUUACGUUAA | -2.26 ± 0.22 | 
12 | CCACAGCAAUAUUACGUCGU | -4.38 ± 0.17 | -3.14 ± 0.17
13 | UUCCAGCAAUAUUACGUGCG | -1.88 ± 0.1 | -1.59 ± 0.11
14 | GUCAAGCAAUAUUACGAUGA | -2.41 ± 0.17 | -1.1 ± 0.11
15 | AUAGAGCAAUAUUACGAUAG | -3.43 ± 0.34 | -1.62 ± 0.23
16 | AUCGAGCAAUAUUACGCGUC | -2.85 ± 0.21 | -2.7 ± 0.43
17 | UUUGAGCAAUAUUACGGUCG | -3.78 ± 0.21 | -1.73 ± 0.19
18 | CUCCAGCAAUAUUACGGGAU | -2.92 ± 0.11 | -1.18 ± 0.1
19 | UAUAAGCAAUAUUACGUAGA | -1.89 ± 0.11 | -0.959 ± 0.13
20 | GGGAAGCAAUAUUACGAGGU | -2.81 ± 0.31 | 
21 | GGUGAGCAAUAUUACGGGGA |  | -2.42 ± 0.28
22 | UGGUAGCAAUAUUACGGAUG | -1.34 ± 0.15 | 0.065 ± 0.13
23 | UCGAAGCAAUAUUACGAGUC | -3.45 ± 0.42 | 
24 | CGCUAGCAAUAUUACGCCUU | -2.49 ± 0.27 | -0.069 ± 0.19
25 | ACUUAGCAAUAUUACGGGAU | -2.08 ± 0.11 | -0.352 ± 0.098
26 | CCCUAGCAAUAUUACGGUCA | -2.57 ± 0.18 | -2.65 ± 0.28
27 | AAGGAGCAAUAUUACGGGCG | -4.03 ± 0.39 | -1.87 ± 0.31

Row | Sequence | self-splicing fitness (ln) (30 °C) | self-splicing fitness (ln) (37 °C)
28 | ACUGAGCAAUAUUACGGUUU | -3.46 ± 0.17 | -2.6 ± 0.11
29 | GGCUAGCAAUAUUACGCGUA | -0.142 ± 0.14 | 0.00477 ± 0.15
30 | UAUGAGCAAUAUUACGAACC | -2.34 ± 0.4 | 
31 | GAUAAGCAAUAUUACGGCUU | -0.701 ± 0.1 | -0.0417 ± 0.14
32 | GUAUAGCAAUAUUACGAUUG | -3.48 ± 0.42 | -1.67 ± 0.3
33 | CCUAAGCAAUAUUACGAUAU | -3.87 ± 0.32 | -2.6 ± 0.21
34 | CUUUAGCAAUAUUACGGACU | -4.41 ± 0.31 | -3.71 ± 0.28
35 | UGCAAGCAAUAUUACGGUUC | -2.93 ± 0.19 | -1.92 ± 0.17
36 | UCCGAGCAAUAUUACGCAUC | -3.11 ± 0.41 | 
37 | UCCGAGCAAUAUUACGGUGC | -3.26 ± 0.19 | -2.62 ± 0.22
38 | AGGGAGCAAUAUUACGCGUA | -3.21 ± 0.31 | -3.16 ± 0.23
39 | GAAAAGCAAUAUUACGAUAU | -1.15 ± 0.071 | -0.354 ± 0.093
40 | GCAGAGCAAUAUUACGGGUC | -3.78 ± 0.47 | -2.29 ± 0.24
41 | UAUUAGCAAUAUUACGUCUG | 0.0275 ± 0.14 | -0.652 ± 0.1
42 | UAUCAGCAAUAUUACGACGC | -2.09 ± 0.13 | -0.508 ± 0.13
43 | UGGUAGCAAUAUUACGCGAG | -1.29 ± 0.17 | -2.17 ± 0.24
44 | ACCAAGCAAUAUUACGAGGG | -2.88 ± 0.15 | -1.49 ± 0.12
45 | GAUCAGCAAUAUUACGUUAU | -1.46 ± 0.07 | -0.207 ± 0.092
46 | UACAAGCAAUAUUACGAUGC | -3.69 ± 0.28 | -3.13 ± 0.29
47 | UUCGAGCAAUAUUACGUAGA | -3.11 ± 0.16 | -1.97 ± 0.17
48 | GAGGAGCAAUAUUACGUCGC |  | -1.54 ± 0.33
49 | UGGGAGCAAUAUUACGACCU | -0.992 ± 0.41 | -0.238 ± 0.46
50 | GUAAAGCAAUAUUACGGAUC | -0.198 ± 0.12 | 0.205 ± 0.15
51 | GGGAAGCAAUAUUACGCGGU | -3.44 ± 0.31 | -1.4 ± 0.21
52 | CCGGAGCAAUAUUACGUCCA | -1.39 ± 0.21 | -1.66 ± 0.32
53 | UGUAAGCAAUAUUACGGCGG | -0.367 ± 0.098 | -0.217 ± 0.12
54 | CUAGAGCAAUAUUACGACCC | -1.62 ± 0.38 | 

Row | Sequence | self-splicing fitness (ln) (30 °C) | self-splicing fitness (ln) (37 °C)
55 | GCGUAGCAAUAUUACGGGCC | -3.1 ± 0.32 | 
56 | GAGAAGCAAUAUUACGAACC | -0.324 ± 0.14 | -0.188 ± 0.22
57 | UGGGAGCAAUAUUACGUUGA | -3.73 ± 0.37 | -2.06 ± 0.27
58 | UCUAAGCAAUAUUACGGGUG | -1.54 ± 0.076 | -0.964 ± 0.099
59 | ACCGAGCAAUAUUACGCUUC | -2.06 ± 0.36 | 
60 | CAGGAGCAAUAUUACGGUCU | -3.85 ± 0.22 | -2.84 ± 0.17
61 | AUUCAGCAAUAUUACGCCAA | -2.22 ± 0.29 | -1.19 ± 0.27
62 | CUGAAGCAAUAUUACGGUAA | -3.7 ± 0.24 | -1.27 ± 0.24
63 | CUCGAGCAAUAUUACGUACU | -2.68 ± 0.2 | -3.11 ± 0.33
64 | CCUCAGCAAUAUUACGGAGG | -4.45 ± 0.24 | -2.33 ± 0.21
65 | CGCCAGCAAUAUUACGUACG | -1.6 ± 0.098 | -0.916 ± 0.12
66 | UCCAAGCAAUAUUACGACUU | -3.57 ± 0.17 | -2.54 ± 0.18
67 | CGAGAGCAAUAUUACGGGGC | -2.35 ± 0.31 | -2.61 ± 0.39
68 | GAACAGCAAUAUUACGCUCC | -3.43 ± 0.36 | -2.34 ± 0.43
69 | UCUUAGCAAUAUUACGGCCG | -2.11 ± 0.37 | -0.349 ± 0.33
70 | GGACAGCAAUAUUACGGACC | -1.35 ± 0.19 | -1.02 ± 0.23
71 | UAUCAGCAAUAUUACGACCU | -0.529 ± 0.071 | 0.112 ± 0.1
72 | GUAGAGCAAUAUUACGGGUG | -2.72 ± 0.22 | -2.93 ± 0.28
73 | GGGAAGCAAUAUUACGAUAC | -0.528 ± 0.14 | -0.986 ± 0.16
74 | UUUGAGCAAUAUUACGGACU | -4.55 ± 0.34 | -2.99 ± 0.23
75 | CCCAAGCAAUAUUACGGCCG | -2.73 ± 0.19 | -2.43 ± 0.21
76 | CCGUAGCAAUAUUACGCUAC | -4.65 ± 0.38 | -1.76 ± 0.21
77 | GUGCAGCAAUAUUACGGUAG | -1.05 ± 0.057 | -0.428 ± 0.074
78 | UAUCAGCAAUAUUACGCUUG | -0.489 ± 0.098 | 0.0735 ± 0.12
79 | AUGGAGCAAUAUUACGCCUA | -0.868 ± 0.14 | -0.981 ± 0.18
80 | UAAGAGCAAUAUUACGUGUU | -3.32 ± 0.18 | -2.96 ± 0.3
